# Measurements published in patent US20250296984A1, “THERAPEUTIC AND DIAGNOSTIC AGENTS AND USES THEREOF” (priority 2022, published 2025).
# Legend:
# [1] = target: T1, Peptide-1 […] (SEQ ID NO: 6, 4N variant of ECD3 of US28) (Human cytomegalovirus, UniProt P69332, D170N); type: binding, human cytomegalovirus (HCMV); details: both ECD3 variants compared
# T1 construct: made in house; host or cells: chemical synthesis
# From the text: The binding specificity of a binding molecule of the first aspect of the present invention having anti-ECD3 binding specificity in addition to the anti-SEQ ID NO: 177 specificity (and/or a second binding molecule having anti-ECD3 binding specificity with which a binding molecule of the first aspect of the present invention may be combined in a formulation) to an epitope within ECD3 of a US28 protein may, for example, be assessed in an ELISA, such as a methodology as described in the examples of this application, or by a variant of said methodology, such as by coating peptides derived from ECD3 (such as Bio-Peptide 1 and/or Bio-Peptide-2) on a first set of wells in a microtiter plate and coating a negative control (such as BSA) in a second set of wells in a microtiter plate. The first set of wells may optionally be further subdivided into a first subgroup of the first set of wells that comprises the sequence of a 4N-variant from ECD3 of US28, and a second subgroup of the first set of wells that comprises the sequence of a 4D-variant from ECD3 of US28, to permit the determination of the relative binding specificity to each variant. […]
# [2] = tested on: human primary cells (adrenal cortical, kidney epithelial, cardiac microvascular endothelial, liver epithelial, vein smooth muscle); experiment: FACS off-target binding to human primary cells; details: FIG. 19 A
# Protocol: Primary cells from different tissue origin were cultured in T25 flasks coated with 3 mL Gelatin-Based Coating Solution (Cellbiologeics, 6950) and placed at 37° C. for 1h. Excess solution was aspirated before cell seeding. 15 mL centrifuge tube were prepared with 6 mL preheated complete medium. Primary cells stored in liquid nitrogen were quickly thawed in 37° C. water bath for <1 min, and transferred to the 15 mL centrifuge tube. Cells were centrifuged at 1000 rpm for 5 minutes, before aspirating the supernatant and resuspending the cell pellet in 6 mL complete medium. Resuspended cells were added into the pre-coated T25 flask, and incubated in a humidified incubator at 37° C. with 5% CO2. […]
# Flowcytometry was used to analyze cell surface binding by the US28 antibodies. Upon cell harvest, adherent non-infected and US28 overexpressing or HCMV infected cells were washed three times with cell staining buffer (phosphate-buffered saline (PBS (Amresco, Cleveland, 44139, USA) added 0.5% BSA and 0.05% Sodium Azide (NaN3)). The cells were trypisinized and then resuspended in DMEM with 10% FBS to inhibit the action of trypsin. The cells were then pelleted at 400×g for 10 minutes and washed three times in cell staining buffer. Cell viability and cell concentration were measured by tryphan blue viability assay and a cell counter (Countess, Invitrogen, Carlsbad, CA 92008, USA). […]
# [3] = target: T2, US28 protein on CHO-US28-A1 cells (Human cytomegalovirus, UniProt P69332, D170N/D19A); experiment: Flow cytometry (FACS) surface binding to CHO-US28-A1 cells; parameters: species or system human cytomegalovirus (HCMV); details: recombinant antibody (rAb), FIG. 7
# T2 construct: expressed in transfected cells; host or cells: CHO-K1 (vector pCDH-EF1a-MCS)
# From the text: FIG. 2. Flowcytometry analysis showing surface binding of the US28-13-5G6-1D3 antibody clone on CHO-US28-A1 cells. From the left, blank control, 2nd antibody control and clone US28-13-5G6-1D3 Ab binding on the surface of the CHO-US28-A1 cells.
# FIG. 3. The positive surface binding of the clone US28-13-5G6-1D3 on CHO-US28-A1 cells was further validated by gradient dilution in FACS analysis. From the left, the clone US28-13-5G6-1D3 Ab surface binding to the CHO-US28-A1 cells in dilutions 1:20, 1:50, 1:200 (w/v).
# FIG. 4. The positive surface binding of the clone US28-13-5G6-1D3 on CHO-US28-A1 cells was compared with the US28 negative CHO control cells. The clone US28-13-5G6-1D3 Ab bound 15-fold more to the surface of the US28 positive CHO-US28-A1 cells than to the US28 negative CHO cells in 1:50 (w/v).
# FIG. 7. […] The surface binding of the 13-5G6-1D3 rAb to CHO cells was only measured in 1:10 dilution (w/v) and was 0.77% after removing the binding to blank and anti-mouse IgG-Alexa 488 secondary Ab controls. […]
# In a further embodiment, it is preferred that a binding molecule of the present invention binds preferentially to US28-expressing cells (such as CHO cells engineered to express US28) compared to its binding of US28-negative cells (such as wildtype CHO cells), for example, at a 1:50 (w/v) dilution, for example as determined by flow cytometry assay. […]
molecule,measurement,setting,value
"US28-13-5G6-1D3: monoclonal antibody against ECD3 of HCMV US28; VH SEQ ID NO: 12, VL SEQ ID NO: 18; rAb is the recombinant product (antibody, V domains shown, Mature form of VH sequence of 1D3, without the leader sequence; Mature form of VL sequence of 1D3, without the leader sequence, monoclonal antibody against ECD3 of HCMV US28; rAb is the recombinant product) VH: EVKLVESGGGLVQPGGSLRLACATSGFTFTDYYMSWVRQPPGKALEWLGFIRSKANGYTTEYSASVKGRFTISRDNSQSILYLQMNTLRSEDSATYYCARDERRTAWLAYWGQGTLVTVSA VL: DVLMTQTPLSLPVSLGDQASISCRSSQSIVHSNGNTYLDWYLQKPGQSPKLLIYKVSNRFSGVPDRFSGSGSGTDFTLKISRVEAEDLGVYYCFQGSHVPTWTFGGGTKLEIK",qualitative ELISA binding to Bio-Peptide-1 (4N) and Bio-Peptide-2 (4D),[1],equal qualitative binding
"13-5G6-1D3: mouse monoclonal IgG1 kappa antibody against US28 ECD3; VH SEQ ID NO: 12, VL SEQ ID NO: 18 (antibody, V domains shown, Mature form of VH sequence of 1D3, without the leader sequence; Mature form of VL sequence of 1D3, without the leader sequence) VH: EVKLVESGGGLVQPGGSLRLACATSGFTFTDYYMSWVRQPPGKALEWLGFIRSKANGYTTEYSASVKGRFTISRDNSQSILYLQMNTLRSEDSATYYCARDERRTAWLAYWGQGTLVTVSA VL: DVLMTQTPLSLPVSLGDQASISCRSSQSIVHSNGNTYLDWYLQKPGQSPKLLIYKVSNRFSGVPDRFSGSGSGTDFTLKISRVEAEDLGVYYCFQGSHVPTWTFGGGTKLEIK",surface binding on human primary cells,[2],< 1%
13-5G6-1D3 rAb: recombinant antibody product of US28-13-5G6-1D3 produced in HEK293-F cells (antibody) heavy: EVKLVESGGGLVQPGGSLRLACATSGFTFTDYYMSWVRQPPGKALEWLGFIRSKANGYTTEYSASVKGRFTISRDNSQSILYLQMNTLRSEDSATYYCARDERRTAWLAYWGQGTLVTVSAAKTTPPSVYPLAPGSAAQTNSMVTLGCLVKGYFPEPVTVTWNSGSLSSGVHTFPAVLQSDLYTLSSSVTVPSSTWPSETVTCNVAHPASSTKVDKKIVPRDCGCKPCICTVPEVSSVFIFPPKPKDVLTITLTPKVTCVVVDISKDDPEVQFSWFVDDVEVHTAQTQPREEQFNSTFRSVSELPIMHQDWLNGKEFKCRVNSAAFPAPIEKTISKTKGRPKAPQVYTIPPPKEQMAKDKVSLTCMITDFFPEDITVEWQWNGQPAENYKNTQPIMDTDGSYFIYSKLNVQKSNWEAGNTFTCSVLHEGLHNHHTEKSLSHSPGK light: DVLMTQTPLSLPVSLGDQASISCRSSQSIVHSNGNTYLDWYLQKPGQSPKLLIYKVSNRFSGVPDRFSGSGSGTDFTLKISRVEAEDLGVYYCFQGSHVPTWTFGGGTKLEIKRADAAPTVSIFPPSSEQLTSGGASVVCFLNNFYPKDINVKWKIDGSERQNGVLNSWTDQDSKDSTYSMSSTLTLTKDEYERHNSYTCEATHKTSTSPIVKSFNRNEC,fold more surface binding on CHO-US28-A1 cells than to normal CHO cells,[3],> 21 fold
